Experimental findings from paper PMC4967042 are described below.

What all share (assay): MST
The target of series [1] is RECQ1-C453A (human, UniProt P46063 1-649, C453A).
In series [2] the target is RECQ1-C478A (human, UniProt P46063 1-649, C478A).
For series [3], the target named is RECQ1-C475A (human, UniProt P46063 1-649, C475A).
RECQ1-C475A, sequence (P46063 whole entry C475A): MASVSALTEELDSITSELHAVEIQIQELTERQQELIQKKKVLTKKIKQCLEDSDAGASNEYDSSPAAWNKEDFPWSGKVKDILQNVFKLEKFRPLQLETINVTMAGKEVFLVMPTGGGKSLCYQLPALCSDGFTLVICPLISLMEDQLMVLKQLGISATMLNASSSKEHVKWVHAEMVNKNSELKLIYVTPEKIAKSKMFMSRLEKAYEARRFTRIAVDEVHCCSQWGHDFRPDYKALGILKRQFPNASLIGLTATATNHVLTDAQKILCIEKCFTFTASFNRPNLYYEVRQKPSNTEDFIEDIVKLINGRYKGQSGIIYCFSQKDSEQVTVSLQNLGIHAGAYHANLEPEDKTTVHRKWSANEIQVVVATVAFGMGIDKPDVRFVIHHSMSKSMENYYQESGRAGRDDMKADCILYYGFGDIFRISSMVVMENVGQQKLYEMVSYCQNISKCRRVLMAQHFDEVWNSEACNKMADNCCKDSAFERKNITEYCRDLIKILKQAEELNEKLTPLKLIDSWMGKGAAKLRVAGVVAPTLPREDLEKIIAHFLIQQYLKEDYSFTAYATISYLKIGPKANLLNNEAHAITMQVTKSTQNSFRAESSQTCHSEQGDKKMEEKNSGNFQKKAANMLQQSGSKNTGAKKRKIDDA

RECQ1-C478A, sequence (P46063 whole entry C478A): as the sequence (P46063 whole entry C475A) above, with A475C, C478A counted along it
RECQ1-C453A, sequence (P46063 whole entry C453A): as the sequence (P46063 whole entry C475A) above, with C453A, A475C counted along it

B1: forked duplex T44/FLAP26 (dsDNA)
DNA 1: GCACTGGCCGTCGTTTTACGGTCGTGACTGGGAAAACCCTGGCG
DNA 2: TTTTTTTTTTTTTTTTTTTTTTCCAAGTAAAACGACGGCCAGTGC
The Kd is the concentration at which binding is half-saturated. A higher Kd goes with lower affinity. On to B1, for which the Kd in series [1] came to 276 nM; in series [2], 602 nM; in series [3], 473 nM.
